Reference: article PMC3931819

Key:
[1] = biological target: 6X(His)-tagged P-domain of the VP1 capsid protein of norovirus Norwalk strain (GI.1 genotype), with the CNGRC cysteine-rich domain (Norwalk virus (GI.1 genotype)); experiment: cross-linking; 5 ug protein in HEPES 20 mM pH 7, NaCl 100 mM, MgCl2 10 mM with 0%, 0.5% or 1% glutaraldehyde, 5 min at 37°C; samples with or without boiling resolved on 10% SDS-PAGE
[2] = biological target: 6X(His)-tagged P-domain of the VP1 capsid protein of norovirus VA387 (GII.4 genotype), with the cysteine-rich peptide … (norovirus VA387 (GII.4 genotype)); experiment: as above

| Substance | stoichiometry N [1] | stoichiometry N [2] |
| --- | --- | --- |
| 6X(His)-tagged P-domain of the VP1 capsid protein of norovirus Norwalk strain (GI.1 genotype), with the CNGRC cysteine-rich domain (domain or fragment) | > 2 |  |
| 6X(His)-tagged P-domain of the VP1 capsid protein of norovirus VA387 (GII.4 genotype), with the cysteine-rich peptide … (domain or fragment) |  | > 2 |
